Laboratory results as given in paper PMC7859452, “A Dimerization Site at SCR-17/18 in Factor H Clarifies a New Mechanism for Complement Regulatory Control” (Frontiers in Immunology, 2020).

B1: Complement Factor H SCR-17/18H fragment (domain or fragment)
chain: TDCLSLPSFENAIPMGEKKDVYKAGEQVTYTCATYYKMDGASNVTCINSRWTGRPTCRDTSCVNPPTVQNAYIVSRQMSKYPSGERVRYQCRSPYEMFGDEEVMCLNGNWTEPPQCKDST
modifications: N-linked glycan chains on SCR-17 and SCR-18
B2: Complement Factor H SCR-16/20 fragment (domain or fragment)
chain: GLPCKSPPEISHGVVAHMSDSYQYGEEVTYKCFEGFGIDGPAIAKCLGEKWSHPPSCIKTDCLSLPSFENAIPMGEKKDVYKAGEQVTYTCATYYKMDGASNVTCINSRWTGRPTCRDTSCVNPPTVQNAYIVSRQMSKYPSGERVRYQCRSPYEMFGDEEVMCLNGNWTEPPQCKDSTGKCGPPPPIDNGDITSFPLSVYAPASSVEYQCQNLYQLEGNKRITCRNGQWSEPPKCLHPCVISREIMENYNIALRWTAKQKLYSRTGESVEFVCKRGYRLSSRSHTLRTTCWDGKLEYPTCAKR
modifications: N-linked glycan chains on SCR-17 and SCR-18
B3: Complement Factor H SCR-16/18H fragment (domain or fragment)
chain: GLPCKSPPEISHGVVAHMSDSYQYGEEVTYKCFEGFGIDGPAIAKCLGEKWSHPPSCIKTDCLSLPSFENAIPMGEKKDVYKAGEQVTYTCATYYKMDGASNVTCINSRWTGRPTCRDTSCVNPPTVQNAYIVSRQMSKYPSGERVRYQCRSPYEMFGDEEVMCLNGNWTEPPQCKDST
modifications: N-linked glycan chains on SCR-17 and SCR-18
B4: Complement Factor H SCR-18/20 fragment (domain or fragment)
chain: TSCVNPPTVQNAYIVSRQMSKYPSGERVRYQCRSPYEMFGDEEVMCLNGNWTEPPQCKDSTGKCGPPPPIDNGDITSFPLSVYAPASSVEYQCQNLYQLEGNKRITCRNGQWSEPPKCLHPCVISREIMENYNIALRWTAKQKLYSRTGESVEFVCKRGYRLSSRSHTLRTTCWDGKLEYPTCAKR
modifications: N-linked glycan chain on SCR-18
B5: Complement Factor H SCR-18H fragment (domain or fragment)
chain: TSCVNPPTVQNAYIVSRQMSKYPSGERVRYQCRSPYEMFGDEEVMCLNGNWTEPPQCKDST
modifications: also: N-linked glycan chain, site not given here
B6: Complement Factor H SCR-17H fragment (domain or fragment)
chain: TDCLSLPSFENAIPMGEKKDVYKAGEQVTYTCATYYKMDGASNVTCINSRWTGRPTCRDTS
modifications: also: N-linked glycan chain, site not given here

Columns and labels:
[1] = biological target: the molecule itself; test: AUC; sedimentation velocity, c(s) size distribution (SEDFIT), 50,000 rpm, 20 °C, 10 mM Hepes pH 7.4, 50 mM NaCl (low salt control; data not shown); KD of dimer to monomers from integration of the c(s) peaks
[2] = biological target: the molecule itself; test: AUC; sedimentation velocity, c(s) size distribution (SEDFIT), 50,000 rpm, 20 °C, 10 mM Hepes pH 7.4, 137 mM NaCl, concentration series 0.2 – 3 mg/ml; KD of dimer to monomers from integration of the c(s) peaks

Row | Protein | Kd [1] [µM] | Kd [2] [µM] | percent dimer [2] [%] | stoichiometry N [2] | stoichiometry N [1] | percent dimer [1] [%]
1 | B1 | 2 ± 1 | 3 ± 1 | 80 | 2 | – | –
2 | B2 | 90 ± 20 | 31 ± 14 | 40 | – | 2 | –
3 | B3 | ~10 | 6 ± 5 | 60 | 2 | – | 50
4 | B4 | 180 ± 130 | 590 ± 150 | – | – | 2 | –
5 | B5 | ~60 | 37 ± 27 | ~50 | – | 2 | –
6 | B6 | – | 5 ± 4 | 80 | – | 2 | –
